Data published in publication PMC10522485.
pKd: −log10 of the molar value.

Assays:
[1] = target: CLIP102-120 labeled with FITC (human); assay: fluorescence polarisation; dissociation of 100 nM DR/CLIP-FITC complexes with 20 µM unlabeled CLIP102-120 as competitor, no DM (intrinsic off-rate), 37 °C, phosphate/citrate buffer pH 5.2
[2] = target: CLIP102-120 labeled with FITC (human); assay: fluorescence polarisation; equilibrium; empty DR from bacterial expression varied from 4 µM to 7.8125 nM (2-fold dilutions), CLIP-FITC fixed at 100 nM

koff [1] | pKd [2] | Substance
1.06e-05 s⁻¹ | – | HLA-DR DRA*01:01/DRB1*01:01, insect cell-expressed (complex)
2.45e-05 s⁻¹ | – | HLA-DR DRA*01:01/DRB1*01:02, insect cell-expressed (complex)
0.000317 s⁻¹ | – | HLA-DR DRA*01:01/DRB1*03:01, insect cell-expressed (complex)
4.23e-05 s⁻¹ | – | HLA-DR DRA*01:01/DRB1*04:01, insect cell-expressed (complex)
3.22e-05 s⁻¹ | – | HLA-DR DRA*01:01/DRB1*04:04, insect cell-expressed (complex)
3.25e-05 s⁻¹ | – | HLA-DR DRA*01:01/DRB1*07:01, insect cell-expressed (complex)
6.88e-05 s⁻¹ | – | HLA-DR DRA*01:01/DRB1*08:01, insect cell-expressed (complex)
1.01e-05 s⁻¹ | – | HLA-DR DRA*01:01/DRB1*08:02, insect cell-expressed (complex)
7.9e-05 s⁻¹ | – | HLA-DR DRA*01:01/DRB1*13:01, insect cell-expressed (complex)
0.000148 s⁻¹ | – | HLA-DR DRA*01:01/DRB1*13:02, insect cell-expressed (complex)
6.27e-05 s⁻¹ | – | HLA-DR DRA*01:01/DRB1*14:01, insect cell-expressed (complex)
0.000223 s⁻¹ | – | HLA-DR DRA*01:01/DRB1*15:01, insect cell-expressed (complex)
– | 5.95 | empty HLA-DR DRA*01:01(N62A)/DRB1*01:01 from bacterial expression (complex)
– | 6.29 | empty HLA-DR DRA*01:01(N62A)/DRB1*01:02 from bacterial expression (complex)
– | 6.38 | empty HLA-DR DRA*01:01/DRB1*01:01 from bacterial expression (complex)
– | 5.87 | empty HLA-DR DRA*01:01/DRB1*01:01(R71A) from bacterial expression (complex)
– | 6.49 | empty HLA-DR DRA*01:01/DRB1*01:02 from bacterial expression (complex)
– | 6.29 | empty HLA-DR DRA*01:01/DRB1*01:02(R71A) from bacterial expression (complex)
